According to the RNAGym collection of RNA variant scans (doi:10.7554/elife.90254):

B1: LINE1-full (parent)
chain: UACGUAGGUGGUUUUCCCCUGAUAGUGCUAAGGGGGCCUGGAAGUUUGGACUGGGCAGAGCUCAACACAGCGUGGCAAAGUGGCUGUGGCUAGACUGCCUCUCUGGAUUCCUCGUCACUCAGCAGGGCAUCUCUGAGAGAAAUGCC

Variants of: B1
Assay: self-cleavage, relative activity (ratio to wild type); higher = more cleavage; in vitro, sequencing; the parent is a self-cleaving ribozyme

Variant | self-cleavage
G80A G126U | 2.06
U47C A79U | 1.76
U96C A138G | 0.2
C19U G125U | 1.81
A43U U47C | 2.03
G7A G8C | 0
U15A U87C | 0.28
A31G A140G | 1.79
U9C A121G | 1.27
A69G U91C | 0
G125U G144U | 1.72
U81C U134C | 1.36
U14A A79G | 0.8
A59U A136G | 1.1
U46C U91C | 0.99
C28U U81C | 1.39
U23C A65C | 0
U15C C120A | 1.31
U15A A22U | 1.16
U13A A22G | 1.05
U96A A117G | 0.11
G55A A79G | 0.4
C63U U119G | 0.37
U14A A67G | 0.59

Variant | self-cleavage
C19A A59G | 0.13
C66U U115C | 0.01
U47C U104C | 2.24
G40U A124G | 0.87
C28A U47C | 0.63
U20C U108C | 1.62
A59U C99U | 0.46
G58U G137U | 0.03
G48C A142G | 1.38
G70U U91C | 0.03
U5C U39C | 1.05
G54A U112A | 0.83
A43G U73G | 1.56
C18A U143C | 0.56
A50G A124U | 0.79
G25A A78G | 1.2
C56U U119C | 0.21
U46G A136G | 1.96
A2G U20C | 0.74
A6U U39C | 0.84
G10A U96C | 0.16
C99G U112A | 0.69
U14C U20G | 0.9
U39C A129G | 1.61

Variant | self-cleavage
U73C C123U | 1.05
A59G U134A | 0.08
C71U A78G | 0.41
U115C A142C | 2.05
A64U G93U | 0.05
U119C U134C | 2.11
A30U A59G | 0.22
U109A A136G | 1.4
U20C C99U | 0.68
A6G C56U | 0.27
U20A U119C | 1.05
U100C U143A | 1.15
U9A G144A | 1.19
A42U A117G | 1.21
A77U A124C | 1.49
A31G G34A | 0.77
A121G A136U | 1.97
U5C U81G | 1.31
G4A U96C | 0.15
C3U A67C | 0.12
C19A | 0.97
A24G A64G | 0.53
C61A A140G | 0.05
U39A U143C | 1.42

Variant | self-cleavage
C63A A121U | 0
A6G C133U | 0.59
A42G C99U | 1.11
U119C | 1.59
U47A U115A | 1.05
C68U G135A | 0.22
U13C A22G | 1.11
G58U A65U | 0.04
C18A A22G | 0.7
U26C U119A | 1.25
U85A U132A | 0.08
U5A A142G | 0.89
C71U U96C | 0.05
A94C U109C | 0
U47C U85C | 0.24
C95U A124U | 0.2
G32A C113U | 1.43
A141G A142U | 1.36
U62A A117G | 0.08
C71A C145U | 0.18
G75C A77G | 0.8
U15A U108C | 1.49
G8U G35A | 1.41
A50C A142G | 1.78

Variant | self-cleavage
U96C G127C | 0.39
U96G A124G | 0.19
C38U C95U | 0.21
A30U G49U | 0.85
G36A C116U | 1.41
A30G A42U | 1.06
U87A U119C | 0.07
A64G U134A | 0.24
C101U G139U | 1.64
U47C G144A | 1.44
A57C A78G | 0
U14C U134A | 0.84
U102C C113U | 1.48
U39A A77G | 2.32
U5C U102C | 1
G32U U62C | 0.06
C95U A117U | 0.21
A79G U104A | 1.35
A30C C131G | 2.01
U15A U132A | 0.45
U23C U52C | 1.43
U15C U62G | 0.15
U85A A129G | 0.07
A64C A141U | 0.3

Variant | self-cleavage
C66U A129G | 0.01
A64U U81A | 0.85
G58U A117G | 0.01
U13C C38U | 1.15
U52G U132C | 1.42
C95U U104C | 0.54
G4C A64G | 1.25
U15C G126A | 1.41
U81C G125U | 1.5
A42U C56A | 0.05
A65U C111U | 0.24
U14A A69G | 2.24
U96C G139U | 0.14
C3U U108C | 1.26
G74U A92G | 0.06
A57U A94G | 0.14
G49C U130C | 1.67
G114A U130C | 1.42
U20G U119C | 1.74
U12G G34U | 2.48
C56U A59G | 0.05
A77U A136U | 0.75
G40C U45C | 0.75
U26A U81A | 1.29

Variant | self-cleavage
U14C A117U | 1.3
A136G A142C | 1.08
A24G A141G | 1.22
U9C A65G | 0.16
A138G A141G | 1.25
U45C U81A | 2.03
A94U A117U | 0.41
U119G C146U | 1.86
U13G A117C | 0.65
U14C U73G | 1.05
U46C A140U | 1.46
C37U C146U | 1.27
C51A U109C | 1.35
C28U A94G | 0.3
U45G U85G | 0.28
A59G G89U | 0.02
U20C A50G | 0.66
G7A A121G | 1.18
A22C U85C | 0.35
G34A A121U | 1.22
U20A A64G | 0.46
A30U A129G | 0.58
A2G A24U | 1.34
C110A U115C | 1.47

Variant | self-cleavage
C37U A121G | 1.62
A24G U46A | 0.9
C61U U112G | 0.04
A2G A107G | 0.94
G105A G127U | 1.31
G55A U115A | 0.21
A50U U62A | 0.01
U87C A94G | 0.14
U23A A31C | 1.31
G34U A141G | 1.56
A57G A94G | 0.16
A6G U45G | 0.97
U1C C37G | 0.73
A65G U143A | 0.06
C116U A117G | 1.61
G34A A43C | 1.23
U39C A42U | 0.73
U73C U130A | 1.2
A57U A64G | 0.1
C16A U46C | 0.91
G44A U132C | 1.31
U108A U119C | 1.41
U20C C38A | 1.11
A64C U81A | 0.44

Variant | self-cleavage
U52G A142G | 0.51
G21A A50C | 0.9
G55U | 0.19
A59C U130C | 0.8
G36A A50U | 1.16
U39C C99U | 0.5
U13C A129U | 1.13
U115C G126A | 1.85
A42G U96C | 0.12
U26A A42U | 1.03
A78G G106A | 1.45
U15C G60A | 0.04
C16U A136U | 1.29
G127A C145A | 1.32
A30C A65G | 0.08
A64G U100C | 0.29
A65G A138U | 0.08
U52C A65G | 0.07
U1C U109A | 2.04
U87A A129U | 0.08
A57C U87C | 0
A79C A141G | 1.96
U23C U119C | 1.61
A22G A129G | 1.45

Variant | self-cleavage
G72U A142G | 0
A24G A140G | 1.68
U15C C19U | 1.08
C28G | 0.98
U39G U85A | 0
U108A U130C | 1.51
U13A G55A | 0.21
A6G U29C | 0.74
G49A A64U | 0.33
G82A A94G | 0.26
A31G G44A | 2.09
U20A G127A | 1.1
G75U U81C | 0.83
G106A U134G | 1.86
U9A U91C | 0.36
G125A U143C | 0.64
G8A A69C | 0.04
U23C U91G | 0.15
U5G U13C | 0.83
A92G A138U | 0.11
G44A A50G | 0.9
U62C U119A | 0.07
U12G G105U | 0.67
G53A A136U | 1.47

Variant | self-cleavage
A31G A136G | 1.37
A24G U96A | 0.11
A24G U96C | 0.31
U96A U143A | 0.38
U46C A124G | 1.54
U87A C113A | 0.06
C98U U130C | 0.5
A69U U91A | 0.05
U14G U87C | 0.41
U46C G114U | 1.12
A78G G83A | 0.25
C68U A78U | 0.37
U109C G127A | 1.49
U46A U134A | 0.77
U12A A42G | 1.28
C113A A142G | 0.47
A57G U112A | 0.99
A43U G86U | 0.08
U39A U115C | 1.31
U39C U132A | 1.46
A31C G54A | 1.02
C133U A142G | 1.14
U102C G137A | 1.8
C99U A117G | 0.4

Variant | self-cleavage
U45G G88U | 0.06
U102C A117G | 1.6
C19A A42G | 0.33
G32C A142G | 1.58
U12G U96C | 0.27
A30G A59U | 0.78
A43G A65G | 0.09
A30U A121G | 1.08
A64G A67U | 0.11
A64G A67G | 0.09
U104C U109C | 1.39
U39C G122C | 0.96
C37A A129G | 1.22
U62A A69U | 0.05
U45C C111U | 1.51
U26A G122A | 0.72
U9C U15C | 1.28
U14C G106U | 0.66
U13A A78G | 0.84
G49U U134A | 1.19
U100A A142C | 1
G35C U96C | 0.26
A107U | 1.46
U130A U134A | 1.33

Variant | self-cleavage
A31U U87C | 0.24
A78G A121U | 0.67
U15A U20C | 1.31
A138U U143G | 1.5
A30C | 1.27
G11U A42G | 1.58
A43G A92G | 0.22
U109C U112A | 2.11
A2G A50U | 0.18
A2G A65G | 0.2
A22C A77U | 0.35
G127C U132C | 1.99
G74A A140U | 1.31
U102C A124G | 1.11
U9C A138U | 1.92
A42G | 1.38
G53A U96C | 0
U20C C37G | 1.08
U102C C118U | 1.59
G55A G114U | 0.22
A64G A78U | 0.23
G60A A67G | 0.08
G4U A121U | 1.23
C19U U85C | 0.21

Variant | self-cleavage
G41A | 1.16
G72U U85G | 0.1
A24G U85C | 0
U13G A30U | 0.56
U20G A77G | 1.36
A43G U132C | 1.1
U26C A59C | 1.37
A24C A124G | 0.98
A43U G58A | 0.05
U39A G53U | 1.63
A117G C123U | 1.48
U15A A79U | 1.09
A6U C56U | 0.21
A42G G93U | 0.05
A42G U104C | 1.81
G10U A42G | 0
A2U U12C | 0.64
A57C A129G | 0.14
A22G A42G | 0.93
A59G G86A | 0.07
G33A U102A | 0.64
U47A A121G | 1.39
